The source of these data is publication PMC11381880, “Action and cooperation in alginate degradation by three enzymes from the human gut bacterium Bacteroides eggerthii DSM 20697” (The Journal of Biological Chemistry, 2024).

For one data set, the target named is T1, BeKdgF (Bacteroides eggerthii, UniProt A0A380Z821).
T1 construct: gene DW701_08695; no signal peptide; theoretical mass 14,137 Da; locus tag BACEGG_03250 inferred from gene order in PUL BACEGG_03245-03254 (PL17 = BACEGG_03249)
T1 sequence (A0A380Z821 1-114): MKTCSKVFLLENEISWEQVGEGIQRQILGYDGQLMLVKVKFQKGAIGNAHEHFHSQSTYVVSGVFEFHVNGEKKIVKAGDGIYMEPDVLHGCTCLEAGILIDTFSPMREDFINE
Put plainly: loss of absorbance at […] nm, Michaelis-Menten fit, spontaneous conversion subtracted. The class given is biochemical. To be noted: 50 mM HEPES, 150 mM NaCl, pH 7.0; 20 nM enzyme, no metal added; saturation not achieved (estimate); substrate made from polyM by BePL17.

A further data set relates to Asp21. Put plainly: NMR. The settings on record: 25 °C; 25 mM NaCl; 20 mM HEPES (starting pH 7.2), pH adjusted with HCl/NaOH; Folded recombinant BeKdgF as purified, 0.26 mM, no substrate or ligand added; metal loading not given.
A further data set deals with Glu66. Put plainly: NMR. To be noted: 25 °C; 25 mM NaCl; 20 mM HEPES (starting pH 7.2), pH adjusted with HCl/NaOH; Folded recombinant BeKdgF as purified, 0.26 mM, no substrate or ligand added; metal loading not given.
For another data set, the system named is Glu114. Put plainly: NMR. The settings on record: 25 °C; 25 mM NaCl; 20 mM HEPES (starting pH 7.2), pH adjusted with HCl/NaOH; Folded recombinant BeKdgF as purified, 0.26 mM, no substrate or ligand added; metal loading not given.
The subject of another data set is Glu13. In words: NMR. The settings on record: 25 °C; 25 mM NaCl; 20 mM HEPES (starting pH 7.2), pH adjusted with HCl/NaOH; Folded recombinant BeKdgF as purified, 0.26 mM, no substrate or ligand added; metal loading not given.
In the next data set the test system is Glu17. In words: NMR. To be noted: 25 °C; 25 mM NaCl; 20 mM HEPES (starting pH 7.2), pH adjusted with HCl/NaOH; Folded recombinant BeKdgF as purified, 0.26 mM, no substrate or ligand added; metal loading not given.
The test system of another data set is Asp110. In words: NMR. The settings on record: 25 °C; 25 mM NaCl; 20 mM HEPES (starting pH 7.2), pH adjusted with HCl/NaOH; Folded recombinant BeKdgF as purified, 0.26 mM, no substrate or ligand added; metal loading not given.
The subject of a further data set is Asp102. Put plainly: NMR. To be noted: 25 °C; 25 mM NaCl; 20 mM HEPES (starting pH 7.2), pH adjusted with HCl/NaOH; Folded recombinant BeKdgF as purified, 0.26 mM, no substrate or ligand added; metal loading not given.
In data set [1] the target is BeKdgF, KdgF-like metalloprotein from Bacteroides eggerthii DSM 20697 (Bacteroides eggerthii DSM 20697). Put plainly: SEC-MALS; BeKdgF at 1 mg/mL, 40 ul on Superdex 200 Increase 10/300 GL, 50 mM HEPES, 150 mM NaCl, pH 7.7, ice-cold buffer, 0.5 ml/min; DAWN8+ detector; equilibrium of tetramer and dimer.
For data set [2] the target is unchanged. Put plainly: NMR 15N relaxation (rotational correlation time from T1/T2); 0.43 mM 13C-15N-labelled BeKdgF, 25 mM Na2HPO4 pH 7.2, 50 mM NaCl, 25 °C, 800 MHz.
In data set [3] the target is BePL17, PL17 subfamily 2 alginate lyase from Bacteroides eggerthii DSM 20697 (Bacteroides eggerthii DSM 20697). In words: SEC; elution on HiLoad Superdex 200 pg 16/600; data not shown.

“And” between values parts separate entries of the source, which are not always exact repeats. Identical values can stand only once.

As for “4-deoxy-β-L-threo-hex-4-enopyranuronic acid [compound 1]”, the Km on BeKdgF was 1140 ± 560 µM.
For “BeKdgF (KdgF-like cupin metalloprotein; annotated Unk3 in PULDB) (Bacteroides eggerthii DSM 20697)”, the pKa in the data set on Asp21 is 5.0±0.2; in the data set on Glu66, 5.6±0.1 and 5.1±0.2; with Glu114, 5.1±0.1 and 5.2±0.1; in the data set on Glu13, 5.0 ± 0.2; with Glu17 it was 4.9±0.1; in the data set with Asp110, 5.5±0.2. The pKa with Asp102 was 5.9 ± 0.1.
As for “BeKdgF, KdgF-like metalloprotein from Bacteroides eggerthii DSM 20697 (enzyme)”, in data set [1], the percent of the protein as dimer came out at 93.5%; the percent of the protein as tetramer is 6.5%; the stoichiometry N was 4 and 2. For the same substance, the stoichiometry N in data set [2] was 2.
Regarding “BePL17, PL17 subfamily 2 alginate lyase from Bacteroides eggerthii DSM 20697 (enzyme)”, the stoichiometry N in data set [3] was determined as 2.
